According to the domain aggregation screens of Martell et al. (2025):

Experiment: soluble fraction after stress (log2 fold change); higher = more stays soluble; pooled small domains, quantitative proteomics
Conditions: stress: 50 degC
Outline: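 The stress applied to every library was 50°C. These custom libraries of small protein domains were pooled and measured at high throughput with quantitative proteomics as the read-out. Aggregation propensity is expressed as the base-two logarithm of the fold change in how much of each protein remains soluble. The higher the value, the more of that protein stays in solution.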

| Sequence | soluble fraction (log2) |
| --- | --- |
| HMDKESQTMFRLLTGVSGVGPKVGLAILSVLSPDRVVLAISAGDHKAFTAASGVGPKLGQRIVLELKDKVG | -3.12 |
| HMDKEVLYVTVNDKKVKLDGKNHIFIDIFNYIDFDIKKPNGSIVLKLNGKNAGYMDEIKDGDKIEIYWDK | 0.0969 |
| HMDKEVMEAVLRILYDDDFNPDQRDAILYFFVQELDQRTISEITGAKIGTVKKRIHDGLKKLRQKLAKEDL | -1.36 |
| HMDKGEQILQQALDKLPPKQRQVFEMRYFDEMPYREIATITETSEGALKASYHHAVKKIQQYISHL | -0.397 |
| HMDKGQRGWINLVSVPTARVIIDGYDTGHETPLYGYEVERGKRKVTLISLDGTYERTYEIRIEPGTTTRVR | -0.775 |
| HMDKIEVVEVDMSKPYEDMTVTELQNVILDKLASNGPVTNQMKKDVSENIYHDSLVNWAKSF | 0.0697 |
| HMDKIYVYTTRGQVIELPRGSTAIDFAYKIQTDIGNMIIAAIVNDKLVDANYVLHNKDRVKIVTS | -1.92 |
| HMDKLNKELVSRMMDDAAWKELSKDFPWTEQLLEKYMNYVDWKEISRNYNVVWTKSLLEKFKHRLDWHE | -1.44 |
| HMDKMIFFKNKENNDDNQLVKIGALLIHAAKIDEDFSQEEENIIKQTLINFGAGNKNINEIIEKAKKME | 0.389 |
| HMDKMVAVPNVRGIEASEAEATLIAQGLFVEVEKSDSEDANVAYGEVYAQTPKAGNRVEEGTTITIKVRTE | 0.0555 |
| HMDKNNLHSVLQDVPGIGPKRMKELMRAFGSVEGMKKAGLEELAAVKGMNHKAAEALIQFFR | 0.199 |
| HMDKQGGWLTMAEAAEKLGVTHHVIRRLIKEKILPAEQVMRHAPHQIRIVDLESDAVAEALRHR | -0.215 |
| HMDKVVGSAGDVTSRITANSGEVKIDGQIWQARSYDETIAIEAGEKIEVFDLDGITLIVYPI | -0.604 |
| HMDLAENWKDDADITLAEYNAIRSRYKPGKLHRDTEFMIARDMLIRPETVLAIAHSRFSNVHTHPV | -0.945 |
| HMDLDEELDFLSDADESATKLDLARAYIDMGDKDGARDILAEVLEEGRSEQKREAQALLDSI | 0.406 |
| HMDLDPVEKLHLLSQLYVGQLKGSFVVKEKNQKTTIIGEVRELSHQTLSIRTNEGYRLIEVADILEIRLWE | -0.221 |
| HMDLDYSGIMNVLNQKYHITFYNNKKIQNLMPKLMIIMGYNSIINEIGHSKSLKALINSFEEKLKSYILT | -3.02 |
| HMDLEGLSNKELVTLRGQIQDDLNKWATEVGIIDPKNRPDDYNRALQSLEDAKRQRSAIDAKL | 0.0869 |
| HMDLEIENYDLREILNLFKLDYNFDNVDLKRAQKIALKTHPDKSNLPKEYFMFFMKAFQIVQQIYYYRY | -0.47 |
| HMDLFREERRQAILDWLATAGRVSVAELSASFGVSEVTVRADLQALADRRLVVRTHGGAMMAG | -1.43 |
| HMDLHSQVFESYERKIREVLREGPLTFEEILHAFALKRHETVAQVITYLMDEGKMSDSGDGKLIYSG | -0.558 |
| HMDLIISDIRMPEMRGDDFLEWIKANELFKHIPVIMLSSEDSTTERIRLLEIGAEDYIVKPFNPMELKIR | -0.505 |
| HMDLLIFSPSLGQHVRDLKRVIDRLHQHGIPVRWQKAKLLREEIEYIGWTWKSGGLIDPTNV | -0.31 |
| HMDLMSTNEKLLYTMRYLISKSLDGAITEEEIRRLDRLIIENSQARAYYVEYLQIHTHLRKLMQQNPELK | -1.97 |
| HMDLRIIKTKKAIKTAFLNLLKENKYHNITISAISETALINRKTFYAHYETKDELYADVIEDALRVLSP | 0.0478 |
| HMDLRIKEIMSERNVTSAWLAEKVGISKVAVSNIVTGKSSPSLDNLLKIADALNVSITTLIG | -0.824 |

| Sequence | soluble fraction (log2) |
| --- | --- |
| HMDLRYKVQYNFIDQGMMTKDELLKFSLNQDDVSKIAVFDNDSKQWKEIYAITEISEKLGIS | -0.0611 |
| HMDLTIEQTTVLGKRLFSNALNSLGKKQRNIKKDAIESLLKRMNLKDMDQLYESIGIGDKSPLLMAQILL | -0.0296 |
| HMDLVIALNSRIRVIREPFFGKLGTVIDLPHKLHKMESGTMTRVAKIKFDDRTEEIIPRTNLEVILS | -2.69 |
| HMDLYEILGVRRGAGGGEIRRAYRRLARRYHPDVNPGDREAQARYALITRAFETLNDPERRRAYDAGVP | -0.34 |
| HMDMAENEEYKVIMGQAQQLAEQFFPADDNTRRIMLGQLKLENYSLYLLTKQILDEATKGQAAAAN | 0.0229 |
| HMDNFDVVLTSPGDQKVQVIKAVRSITGLGLKEAKDLVDGAPNTVKEGVKKLDAEEMLKQLTEAGATGEL | 0.296 |
| HMDNFQFIGYSQQQGQIAVAWIKSLDNGRLVRVEVSDSLEGWRVSDISAQGVNLTKGQQWLMLKRL | -1.73 |
| HMDNIGKTLGQNQTRQYKVAYAEAAKLPAIIMGLVPLPKPPVVDERLRSLYVTATPEQHRQIETLMNRI | 0.11 |
| HMDNITIYSSNGKIYVNAIGGEKIELFNITGQKVAEKVAVSGINVLDAVYDITLVKVGSKVVKVV | -0.123 |
| HMDNLATRILKELNNNDGFLPLSDKSQPEAIYQAFGISKKSYKTAIGTLYKKRLITISENGIQLTD | -0.688 |
| HMDNLSQMQERILEFIIRSKDQSGYTPSLREIGDEVGLKAVSSVKYQLEQLKDAHYISFDANTARAIRVLI | -1.7 |
| HMDNMFVEERQALIYEELQSNGRVRVKDLSKKFNVSEDLIRKDLNVLEKEGKLRKIYGGAVLAK | 0.568 |
| HMDNNNQAAFMGALNSLKEYAKVNGNIVTKQDVESYFKDLGLDDSKYQMITGYLLANDITVKG | 0.0282 |
| HMDNQYGVYSDEKNNVEIHWKRIDHPSVAKDHLDIEAYQNGKRVDINNQQADHYRYLINQEMNE | 0.0952 |
| HMDPAFAQHHDRALSILHSRGYEVHDSDTDLHWARPVLEFEAYKGSLEYKIVMSYPDLNIIEERVD | -1.06 |
| HMDPASYEARLSTLREQGAQQLDPVRFQYLATLAQRLPTQTPGVALILANKLRAGLSDYEQRLSEAGS | -0.0289 |
| HMDPDAIVSKGQLGALNNAIGRFIAQGGSQTVVDKGIAKRNPNAKKPADLTNSQAESLEAAILKILNG | 0.515 |
| HMDPLGALSDRERQVLALIGQGHGLQAIADQLGVSYKTAANTSSALKKKLGVDGINGLMKFALDSG | -0.505 |
| HMDPLGGFTKGDVDMDGRVAVNDAVMVLKNAIKLMELDTQQLMLADADNDGKITVNDAVMILKKAIKLID | -0.111 |
| HMDPTLFRLNILEGLGLEKKNLTSEEQEQLRFLYEHFSMKEILMTIDYIKKLNLEKSIVNLYRLMQHP | -0.0621 |
| HMDPTVEENKLNPRDLLIIQRVKEGRTNKEIAEELNVAEITVKKQLSSLYQRYKVHNRNQLLLALD | 0.117 |
| HMDPVQLEVIKKLNLLNAQKPKDIYALRDVLSEMFPQSDIRLLLKELLDKGYIYWNGHEVIYSHEMF | -0.217 |
| HMDPYEYQLELEKLINNATELNKKYNYDPLKDKILAADAVKNSLETYVLQNYIVALENEIKQTLNQYQIL | -0.44 |
| HMDQNDYMLTRIRNGQMRNKVSVSMPASKIKSAIAAVLKDEGYIENFALNDSSGKPSLIVNLKYYAGQPV | -0.0135 |
| HMDQPVIDVREFGARGDGKQDDAPAIQAAVRLAEQLGGGRVVVPATREFYLLGSTIRIRGHHVTLTGPGAR | 0.0155 |
| HMDRAIAAHLEARVRDALKQLSPEQTRVIELFFFDNKTHAEIENDLKIPLGTVKSRLRLALNKLRASL | -1.96 |

| Sequence | soluble fraction (log2) |
| --- | --- |
| HMDRASGEEEALKEAEDAISRVWEFDGPVELNPQNSYLRRLQHELASRYNVKSVSIGQEPNRRVVYYK | -0.0181 |
| HMDRDPAEAGYDDGYLSGNTDGMNNDERATYDESSQYPTPDERQSYAAAYRRGYAAGFADGRKQAV | 0.134 |
| HMDREIVEAIVPLEAAGKRFDAALAEMFPEFSRSRLTEWIKAGDALLAGEIVKPKVSVRGGEAVSLSIRV | -0.485 |
| HMDRELVALVQKALSQLSEQQRRIVELHVMEGMKYLEIADLLQLSENTVRTHLKRAYKILRENH | -1.76 |
| HMDRERFIKLGREIARAAFENVGKKATDKVLNSAAKKLRLEDGDEVLARLGSAEIEARSVVQAVYPDLI | 0.452 |
| HMDRKARRKYIEQVVNDRKIETQEELLKLLTEAGFETTQATISRDIHALNIVKANDGDGHTHYVQLH | 0.144 |
| HMDRKEEIIIVTLKLASQIGLSNVSMEQIAKQVGIKKPSLYNHFKSKDEIIDAMYEYLREKSKN | -0.869 |
| HMDRMIPPYGLEVTYDKTTHIIFPSAVRYVDLGSPNLIAGKADGSENVIRVKATRKNFREETNMSVITE | -0.043 |
| HMDRPEPLYIVNGKEVQTLEEAFELGRTLGSAKKGTQVRLRRLLPEEGVEKYGEKGRNGVFEFMVSA | 0.217 |
| HMDRPLRTKEHFARFAGEQVVVKTSSPIDGRSSFTGTLEGMEGDDVIVEVDGSRIAIGYSLIKRAHVVG | 0.117 |
| HMDRRFFVAEENYKRLDVFLSERMEEFTRSRIKKLIDEGHVELNGKSAKAGAEIRPGDEVAAEIPEVKE | 0.147 |
| HMDRRIDIANAVKTALGSLPERQKTAIVLVHYEGFSGAETAKLLGISVEAVESLLARARRNLRQTLGP | -0.455 |
| HMDRTIGEIGLVTETIDSTLESGRVMVDGLSWKARTSDNTVLEAGTRVQVKEIHGVTLTVEKA | 0.166 |
| HMDRTLTYTVSIEESDLRADQFLSRRGFSSHLLTRLRKNMEHLLINGTPSRTNTHLHEGDILTVHIVEE | -0.479 |
| HMDRWTPLIVAVLIEGSHRFGELRSAIGGITPKVLTETLRSMERDGLVTRDQVPGVPPRVDYALTPLG | -0.334 |
| HMDRYVDEEKRFYWRSGEAYLNFSKYKDRSLAEVATVDPGFLRWMMEADFSPETKQIVERALEGEFPQKK | 0.123 |
| HMDSADADLLRRIEDLLSSRRSVIREARLADMLGVPRDQVARALDLLQERGVIGLTTDSGMKRIAFRRN | -0.0756 |
| HMDSAQLARWAATILAQNGRKITPSTMNLFLERVGDDMENIRMELEKLISYTMGSEVVTAEDVKVITTVQ | -0.569 |
| HMDSAVLQKHLVKLIELHAPIKARNLAKILADEFGKHVDRSAVNSALYSLKAERKVEVNSSYEWSLD | -2.11 |
| HMDSDRAARLSSLTPQQFRVLRMVSEGQLNKQIAYQLNISEATVKSHVSAILQKLGVNSRTQAVILATRLD | -2.01 |
| HMDSEQLSGLVNMGFSVYQAKTALEMFDNDIERAANYL | -0.425 |
| HMDSERTALLSSDRTSFTAREAALLIGVSQRDIYRMIEDELLDSFTVGKMIRIRRSALEWWLS | -2.92 |
| HMDSFEEGTYRKNQRGFGFVKIENQEDEIFISKENSLNALNGDRVIVEIIEDKDRTKRAEGKIKKILKHE | 0.201 |
| HMDSGLLSAREREVAGLVLSGMTYAEIGEAIFISPRTAEHHIARIRRRLGATSRTDLIAKLQAIVGID | -3.45 |
